Laboratory results reported in PMC10828781, “Genome variation and LTR-RT analyses of an ancient peach landrace reveal mechanism of blood-flesh fruit color formation and fruit maturity date advancement”.

Biological target: PpBL (Prunus persica, UniProt M5WDM1 1-437)
Test: EMSA; 5x, 10x, 50x competitor probe; EMSA: room temperature 30 min, 6% native PAGE in 0.5x TBE at 4 C, 60 V 1 h, binding buffer not stated; pull-down: 1 ug DNA-bead complex with 300 ul nuclear proteins, 20 min room temperature
Conditions: protein: recombinant; (pGEX-6p-1 vector); label: biotin

Chain of PpBL (M5WDM1 entry or part of it): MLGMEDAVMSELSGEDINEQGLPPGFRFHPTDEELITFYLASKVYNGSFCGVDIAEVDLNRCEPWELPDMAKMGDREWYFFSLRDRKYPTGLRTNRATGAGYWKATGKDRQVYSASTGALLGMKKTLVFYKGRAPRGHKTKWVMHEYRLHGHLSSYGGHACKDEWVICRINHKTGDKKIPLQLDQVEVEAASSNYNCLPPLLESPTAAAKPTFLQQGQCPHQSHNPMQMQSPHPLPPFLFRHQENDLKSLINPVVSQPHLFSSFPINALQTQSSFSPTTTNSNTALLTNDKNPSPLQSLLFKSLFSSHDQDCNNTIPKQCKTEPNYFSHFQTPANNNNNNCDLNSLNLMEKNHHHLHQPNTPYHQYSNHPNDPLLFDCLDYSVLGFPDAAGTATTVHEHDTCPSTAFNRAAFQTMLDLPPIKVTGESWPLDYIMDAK

| Binder | binding result |
| --- | --- |
| PpACO1 promoter probe (dsDNA) DNA 1: ACAGTAATTTGCTTGCTTTC DNA 2: GAAAGCAAGCAAATTACTGT | binds |
| PpACS1 promoter probe (dsDNA) DNA 1: TACAACACGCAAGCAATTAC DNA 2: GTAATTGCTTGCGTGTTGTA | binds |
